The values that follow are results of earlier work, collected in paper PMC7290885.

Where two headings read alike, the source gives them in different places.

Data set [1] deals with GLP-1R (Homo sapiens) (UniProt P43220).
Data set [2] shares this target. The source holds these as a separate data set.
The target is the same in data set [3]. The source holds these as a separate data set.
The target is the same in data set [4]. This is another data set of the same source.

Chain of UniProt P43220 (P43220 24-463): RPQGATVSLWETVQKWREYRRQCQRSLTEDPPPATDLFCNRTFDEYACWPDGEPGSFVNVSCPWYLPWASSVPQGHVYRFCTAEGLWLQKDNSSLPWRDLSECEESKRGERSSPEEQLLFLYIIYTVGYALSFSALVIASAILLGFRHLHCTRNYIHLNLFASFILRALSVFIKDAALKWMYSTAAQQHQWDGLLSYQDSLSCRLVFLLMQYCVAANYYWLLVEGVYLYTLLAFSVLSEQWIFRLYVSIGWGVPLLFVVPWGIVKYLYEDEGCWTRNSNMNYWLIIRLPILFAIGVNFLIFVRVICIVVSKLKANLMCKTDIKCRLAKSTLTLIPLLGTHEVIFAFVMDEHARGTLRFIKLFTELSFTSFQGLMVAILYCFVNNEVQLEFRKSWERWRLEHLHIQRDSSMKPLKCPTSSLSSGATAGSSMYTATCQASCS

Turning to “LCA-Di (exendin-4 derivative) (from UniProt P26349)”, the Kd in the data set with GLP-1R (Homo sapiens) [1] was 71700 pM.
“LCA-M1 (exendin-4 derivative) (from UniProt P26349)”: the dissociation constant Kd with GLP-1R (Homo sapiens) [2] was 470 pM.
Regarding “LCA-M2 (exendin-4 derivative) (from UniProt P26349)”, the Kd in the data set with GLP-1R (Homo sapiens) [3] was 550 pM.
Turning to exendin-4 (from UniProt P26349), the Kd with GLP-1R (Homo sapiens) [4] is 140 pM.

As usually defined, the Kd is the free concentration of one partner at which half of the binding sites on the other are occupied at equilibrium, for simple one-to-one binding.
